Two molecules from patent CN117126289A (SUNSHINE GUOJIAN PHARMACEUTICAL SHANGHAI CO LTD, dated 2023) can be followed below.

Experiment [1] addresses T1, 重组Human-TROP-2-HIS蛋白 (human, UniProt P09758 27-274, limits assumed).
T1 construct: Bought protein; also called TROP-2-HIS蛋白 (恺佧, TRP-HM121); not shown: His tag
T1 sequence (looked up): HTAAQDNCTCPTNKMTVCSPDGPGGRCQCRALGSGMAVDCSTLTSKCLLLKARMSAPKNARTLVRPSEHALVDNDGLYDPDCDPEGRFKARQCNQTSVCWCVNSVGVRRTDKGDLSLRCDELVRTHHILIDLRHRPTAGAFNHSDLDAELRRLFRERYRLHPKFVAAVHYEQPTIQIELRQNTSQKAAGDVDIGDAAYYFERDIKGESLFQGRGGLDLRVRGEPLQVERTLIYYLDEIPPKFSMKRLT
Briefly: ELISA, coated TROP-2-HIS 200 ng/ml, HRP goat anti-human Fc. (In an ELISA, binding on a coated surface is turned into a signal by an enzyme label.)

Experiment [2] concerns the target T2, 重组Human-CD3-FC蛋白 (human).
T2 chain: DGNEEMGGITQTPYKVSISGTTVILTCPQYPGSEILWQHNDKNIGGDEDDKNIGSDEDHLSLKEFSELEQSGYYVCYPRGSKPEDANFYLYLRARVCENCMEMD
The experiment can be described thus: ELISA, coated CD3-FC 200 ng/ml, HRP goat anti-human Fab.

B1: KM4097HV3aLV0人源化单克隆抗体 (抗TROP-2单抗阳性对照) (antibody, V domains shown)
VH: QVQLVQSGPEVKKPGASVKVSCKASGYTFTIYWLGWVRQAPGQGLEWMGNIFPGSAYINYNEKFKGKVTITADTSTSTAYMELSSLRSEDTAVYFCAREGSNSGYWGQGTLVTVSS
VL: DIVMTQSPDSLAVSLGERATINCKSSQSLLNSGNQQNYLAWYQQKPGQPPKLLIYGASTRESGVPDRFSGSGSGTDFTLTISSLQAEDVAVYYCQSDHIYPYTFGQGTKLEIKR
notes: IgG (detected with anti-human Fc); also called 阳性对照抗TROP-2单抗
With B1, the response in experiment [1] was half-maximal at 0.0261 nM (EC50).

B2: 人源化SP34 (抗CD3单抗阳性对照) (antibody, human IgG1, kappa, V domains shown)
VH: EVQLVESGGGLVQPGGSLRLSCAASGFTFNTYAMNWVRQAPGKGLEWVARIRSKYNNYATYYADSVKDRFTISRDDSKNTLYLQMNSLRAEDTAVYYCVRHGNFGNSYVSWFAYWGQGTLVTVSS
VL: QAVVTQEPSLTVSPGGTVTLTCRSSTGAVTTSNYANWVQQKPGQAPRGLIGGTNKRAPGVPARFSGSLLGGKAALTLSGAQPEDEAEYYCALWYSNLWVFGQGTKVEIKR
notes: Full-length humanised SP34: VH + human IgG1 constant region, VL + human Kappa constant region; also called 阳性对照CD3单抗; 人源化SP34单克隆抗体
Consider B2, for which it took 0.0618 nM to reach a half-maximal effect in experiment [2] (EC50).
